Biological target: the molecule itself
Test: SEC-HPLC with light scattering, self-association (homodimer)

B1: recombinant human heparan N-sulfatase (rhHNS), mature form (enzyme)
chain: RPRNALLLLADDGGFESGAYNNSAIATPHLDALARRSLLFRNAFTSVSSCSPSRASLLTGLPQHQNGMYGLHQDVHHFNSFDKVRSLPLLLSQAGVRTGIIGKKHVGPETVYPFDFAYTEENGSVLQVGRNITRIKLLVRKFLQTQDDRPFFLYVAFHDPHRCGHSQPQYGTFCEKFGNGESGMGRIPDWTPQAYDPLDVLVPYFVPNTPAARADLAAQYTTVGRMDQGVGLVLQELRDAGVLNDTLVIFTSDNGIPFPSGRTNLYWPGTAEPLLVSSPEHPKRWGQVSEAYVSLLDLTPTILDWFSIPYPSYAIFGSKTIHLTGRSLLPALEAEPLWATVFGSQSHHEVTMSYPMRSVQHRHFRLVHNLNFKMPFPIDQDFYVSPTFQDLLNRTTAGQPTGWYKDLRHYYYRARWELYDRSRDPHETQNLATDPRFAQLLEMLRDQLAKWQWETHDPWVCAPDGVLEEKLSPQCQPLHNEL
notes: In the immunohistochemistry it was detected in fixed monkey tissue after intrathecal dosing; also called sulfamidase; human HNS
binding result: binds

— US20120014936A1 (SHIRE HUMAN GENETIC THERAPIES, published 2012)
